Target: His6-SUMO-WDR5 (recombinant human WD-repeat containing protein 5, residues Ser22-Cys334) (human, UniProt P61964 22-334)
Experiment: AlphaScreen or HTRF; competitive TR-FRET: 1 nM LanthaScreen Elite Tb-anti-His antibody, 150 nM 10-mer-Thr-FAM peptide, 2 nM His6-SUMO-WDR5 in 1X PBS pH 7.2, 300 mM NaCl, 0.5 mM TCEP, 0.1% CHAPS; 1 hour at room temperature; small-molecule inhibitors titrated to displace the peptide
Conditions: both partners purified

- binding result: binds
B1: 10-mer-Thr-FAM peptide probe (ARTEVHLRKS-[Ahx-Ahx][Lys-(5-FAM)]) (peptide)
peptide: ARTEVHLRKS
modifications: C-terminal Ahx-Ahx followed by Lys-(5-FAM)
notes: WIN-site peptide probe; After the ten printed residues come two aminohexanoic acid (Ahx) units and a lysine that carries 5-FAM; also called labeled WIN-site peptide; labeled WIN-peptide; source: synthetic peptide (GenScript)

— article PMC13313556, “Development and characterization of triazole-based WDR5 inhibitors for the treatment of glioblastoma” (JCI Insight, 2026)
